According to US6511816B1, “DNA gyrase-inhibiting proteins” (priority 1996, dated 2003):

Experiments:
[1] = target: Escherichia coli DNA gyrase (subunit A and subunit B) (Escherichia coli) (UniProt P0AES4); assay: cell-based or functional assay
[2] = system: E. coli GI724 (pCA17) strain; assay: Microscopic observation of strains expressing a large amount of DGI; assay type: cell-based, Escherichia coli; details: tryptophan-induced expression from pCA17
[3] = target: Escherichia coli DNA gyrase (subunit A and subunit B) (Escherichia coli, UniProt P0AES4+P0AES6)
Protocol: Using the purified DGI obtained in Example 4 above, DGI activity, i.e. the inhibiting activity against DNA gyrase activity (supercoiling activity), was measured. Each 5 μl of DNA gyrase subunit A (1U) and subunit B (1U) were each added to a reaction mixture for activity measurement (20 mM Tris-HCl (pH7.5), 20 mM KCl, 4 mM MgCl2, 4 mM spermidine, 1.5 mM ATP, 1 mM DTT, 30 μg/ml t-RNA, 15 μg/ml BSA and 0.1 μg relaxed pBR322 DNA), and DGI (protein concentration 25, 12.5, 6.25, 3.13, 1.56, 0.78 or 0.39 μg/ml) was added thereto for the reaction for 1 hour at 37° C. After stopping the reaction by addition of 3 μl of proteinase K (1 mg/ml) while keeping the temperature at 37° C. for 30 minutes, the reaction mixture was subjected to electrophoresis with 0.8% agarose gel, dyed with a 0.5 μg/ml solution of ethidium bromide and photographed under radiation of the ultraviolet rays. The amount of super-coiled DNA was measured with a densitometer (Shimadzu-wavelength flying spot scanner CS-9000, available from Shimadzu Seisakusho Co.). The presence or absence of DNA gyrase-inhibiting activity was assayed by comparing the supercoiled DNA amounts obtained when DGI protein was added, with those obtained when no DGI protein was added.
0.5 μg of pBR322 DNA (the supercoiled type, available from Takara Shuzo Co.) and 1 μl of topoisomerase I (available from Takara Shuzo Co.)(6 U/μl) were added to 20 μl of a reaction liquid (35 mM Tris-HCl (pH 8.0), 72 mM KCl, 5 mM MgCl2, 5 mM DTT, 5 mM spermidine and 0.01% bovine serum albumin) and reacted for 2 hours at 37° C. to prepare relaxed pBR322 DNA. […] As for the enzyme activity, the enzyme amount necessary to convert 50% of the amount of the relaxed plasmid DNA into the supercoiled DNA was expressed as one unit (U).

[4] = system: E. coli GI724 strain; assay: Growth of antisense RNA-expressing strain with tryptophan induction; assay type: cell-based, Escherichia coli; details: for turbidity OD600 / number of living cells: tryptophan added
Protocol: An antisense expression vector was prepared by inserting a fragment containing the translation region of dgi gene (a fragment corresponding to the 255th-728th bases of Sequence ID NO:6) into the downstream of tryptophan (trp) promoter of vector plasmid pLEX (available from Invitrogen Co.).
The vector was introduced into E. coli GI724 strain. The antisense RNA-expressing strain thus obtained was cultured under the condition of with or without adding tryptophan, and the change with the lapse of time in the number of living cells and turbidity (OD600) was measured. When expression induction by adding tryptophan was not carried out, the number of living cells and turbidity after 24 hours were increased up to 1×10^9 cfu/ml and 1.0, respectively. […] It has been reported that such abnormality in morphology was also observed when E. coli was treated with a new quinolone gyrase inhibitor (Takeshi Nishino et al., Chemotherapy, vol. 41(s-5), pp. 50-66, 1993). From the above result, it is considered that in E. coli wherein expression of dgi antisense RNA is induced, expression of dgi gene is repressed and the normal growth of bacteria is inhibited. In other words, a medical agent which inhibits the expression of dgi gene is useful as an antimicrobial agent.

Sequence of Escherichia coli DNA gyrase (subunit A and subunit B) (P0AES4 whole entry, one chain of several): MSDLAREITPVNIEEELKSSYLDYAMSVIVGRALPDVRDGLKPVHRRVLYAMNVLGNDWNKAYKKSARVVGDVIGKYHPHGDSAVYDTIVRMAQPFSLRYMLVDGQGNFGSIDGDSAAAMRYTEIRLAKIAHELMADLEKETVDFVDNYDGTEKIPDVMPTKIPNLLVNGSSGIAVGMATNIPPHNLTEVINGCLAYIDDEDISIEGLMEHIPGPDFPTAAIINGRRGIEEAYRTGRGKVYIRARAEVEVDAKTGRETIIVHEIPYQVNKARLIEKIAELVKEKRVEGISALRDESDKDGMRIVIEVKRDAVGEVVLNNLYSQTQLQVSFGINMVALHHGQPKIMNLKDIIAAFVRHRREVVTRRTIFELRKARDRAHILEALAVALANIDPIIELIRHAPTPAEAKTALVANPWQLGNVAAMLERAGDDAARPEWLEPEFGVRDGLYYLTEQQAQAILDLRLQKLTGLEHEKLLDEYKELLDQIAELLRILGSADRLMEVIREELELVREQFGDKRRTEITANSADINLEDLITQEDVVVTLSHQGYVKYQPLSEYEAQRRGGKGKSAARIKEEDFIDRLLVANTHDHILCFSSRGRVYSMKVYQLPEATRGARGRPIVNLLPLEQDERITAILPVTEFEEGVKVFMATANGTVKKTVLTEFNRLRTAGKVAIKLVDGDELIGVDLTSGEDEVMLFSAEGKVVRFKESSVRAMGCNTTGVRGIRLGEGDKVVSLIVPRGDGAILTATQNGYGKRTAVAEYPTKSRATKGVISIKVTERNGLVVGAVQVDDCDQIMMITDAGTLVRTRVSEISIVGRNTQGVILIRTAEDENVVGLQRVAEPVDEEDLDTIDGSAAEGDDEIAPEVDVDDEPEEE
Sequence of Escherichia coli DNA gyrase (subunit A and subunit B) (Escherichia coli) (P0AES4 2-875 limits assumed): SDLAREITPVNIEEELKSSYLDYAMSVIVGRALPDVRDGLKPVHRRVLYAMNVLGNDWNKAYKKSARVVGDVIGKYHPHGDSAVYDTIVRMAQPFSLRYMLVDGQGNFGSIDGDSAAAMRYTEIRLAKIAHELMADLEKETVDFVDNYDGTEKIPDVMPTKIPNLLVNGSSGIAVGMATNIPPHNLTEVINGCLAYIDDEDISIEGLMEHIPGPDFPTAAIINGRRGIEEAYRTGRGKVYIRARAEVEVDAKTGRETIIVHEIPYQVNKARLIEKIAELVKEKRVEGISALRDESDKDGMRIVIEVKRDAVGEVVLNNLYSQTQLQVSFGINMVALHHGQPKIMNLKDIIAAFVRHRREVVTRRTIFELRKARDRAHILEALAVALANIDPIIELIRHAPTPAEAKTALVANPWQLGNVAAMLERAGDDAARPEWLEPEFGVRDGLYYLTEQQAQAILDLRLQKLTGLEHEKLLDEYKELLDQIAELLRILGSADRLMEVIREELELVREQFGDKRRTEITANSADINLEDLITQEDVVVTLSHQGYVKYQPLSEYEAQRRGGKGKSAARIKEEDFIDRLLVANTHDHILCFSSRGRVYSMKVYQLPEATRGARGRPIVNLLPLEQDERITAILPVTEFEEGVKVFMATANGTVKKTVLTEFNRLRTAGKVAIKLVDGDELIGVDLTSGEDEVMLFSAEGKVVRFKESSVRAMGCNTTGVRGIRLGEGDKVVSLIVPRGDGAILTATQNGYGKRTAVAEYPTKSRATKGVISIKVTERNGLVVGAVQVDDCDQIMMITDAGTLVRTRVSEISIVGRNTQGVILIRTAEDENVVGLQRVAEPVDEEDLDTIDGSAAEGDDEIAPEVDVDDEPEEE

Molecule: DNA gyrase-inhibiting protein (DGI) derived from Escherichia coli (from UniProt B2TYH1 1-157)
- supercoiling activity of DNA gyrase (relaxed pBR322 DNA, agarose gel) [1]: 8 µg/ml
- supercoiling activity of DNA gyrase (relaxed pBR322 DNA, agarose gel, densitometry) [1]: > 6 µg/ml

B1: DGI: about 18 kDa Escherichia coli protein inhibiting DNA gyrase supercoiling activity, Sequence ID NO:7 (protein)
chain: MNYEIKQEEKRTVAGFHLVGPWEQTVKKGFEQLMMWVDSKNIVPKEWVAVYYDNPDETPAEKLRCDTVVTVPGYFTLPENSEGVILTEITGGQYAVAVARVVGDDFAKPWYQFFNSLLQDSAYEMLPKPCFEVYLNNGAEDGYWDIEMYVAVQPKHH
modifications: Escherichia coli strain KL16
- morphology of strains expressing a large amount of DGI [2]: lank and elongated
- concentration perfectly inhibiting the supercoiling activity of DNA gyrase ([3]; purified DGI isolated from Fraction No. 32 by Sephadex G-75, relaxed pBR322 DNA, subunit A 1 U, subunit B 1 U): 8 µg/mL
- concentration completely inhibiting the supercoiling activity of DNA gyrase ([3]; recombinant purified DGI of Example 4, 1 hour at 37° C., tested 25 to 0.39 μg/ml): ≥ 6 µg/mL
- conversion to supercoiled DNA at concentration lower than 6 μg/ml ([3]; recombinant purified DGI of Example 4, below 6 μg/ml): ended in an incomplete state

B2: dgi gene antisense RNA: antisense RNA expressed from pLEX carrying the dgi fragment (255th-728th bases of Sequence ID NO:6) (nucleic acid)
antisense: ATGAACTACGAGATTAAGCAGGAAGAGAAACGTACCGTTGCAGGTTTCCATCTCGTTGGCCCGTGGGAACAGACGGTAAAGAAAGGCTTTGAGCAGTTGATGATGTGGGTAGATAGCAAAAATATTGTGCCGAAGGAGTGGGTTGCTGTCTATTACGACAATCCAGATGAAACACCCGCCGAAAAATTACGCTGCGACACCGTCGTGACGGTGCCGGGTTACTTTACGCTTCCCGAAAACAGTGAGGGCGTCATTCTGACAGAAATTACAGGTGGTCAGTATGCGGTGGCGGTAGCTCGTGTAGTCGGTGATGATTTTGCTAAACCCTGGTATCAGTTCTTTAATAGTCTCTTGCAGGACAGTGCTTATGAAATGTTACCAAAGCCCTGCTTCGAGGTTTATTTGAACAATGGCGCGGAAGATGGGTACTGGGATATCGAAATGTATGTTGCGGTGCAGCCAAAACATCACTAA
modifications: antisense orientation RNA; Escherichia coli strain KL16
- morphology of bacteria ([4]; antisense RNA-expressing strain): elongation of the bacteria was observed
- turbidity OD600 ([4]; 8 hours after the addition): 0.4
- number of living cells ([4]; 8 hours after the addition (from 4×10^7 cfu/ml)): 1×10^8 cfu/ml
- number of living cells ([4]; after 24 hours): 5×10^6 cfu/ml
- turbidity OD600 ([4]; after 24 hours): ~0.5
